US20180344813A1, “ENGINEERED POLYPEPTIDES HAVING ENHANCED DURATION OF ACTION WITH REDUCED IMMUNOGENICITY” (priority 2016, published 2018)
Like-named read-outs stand apart in the source and are kept apart here.

Columns and labels:
[1] = tested on: IgG molecules present in normal human sera; test: Serum response analysis: ELISA of human serum IgG binding to albumin binding polypeptides
Description: Each serum sample was tested as a singlet.

[2] = tested on: renal cortical tubular epithelial cells; test: Kidney vacuolization histopathology in C57BL6 female mice; type: in vivo, mouse
Description: With some drugs, such as some pegylated proteins, undesirable vacuoles can form in cytoplasm of epithelial cells lining the proximal convoluted tubules, which is an undesirable toxicity measure. […] C57BL6 female mice (n=2 cages, 3 mice/cage) were weighed daily 3 hours prior to lights out. Immediately after weighing, on days 0-6 mice were injected subcutaneously with test compound. Mice were sacrificed on day 7 and kidneys submitted for histopathology. […] A positive control compound known to cause vacuole formation was scored as 3.

NIH/Swiss mice = test: OGTT DOA (oral glucose tolerance test duration of action); type: in vivo, mouse
Description: For example, duration can be performed using an oral glucose tolerance test (OGTT) in which the drug is administered to the subject at a desired time point before the glucose is administered orally(to measure drug duration of action; OGTT DOA) and glucose blood levels are measured (e.g. readily done in mice).
Drug was administered to 4-hr fasted NIH/Swiss mice. […] Blood glucose was measured with a OneTouch® Ultra® (LifeScan, Inc., a Johnson & Johnson Company, Milpitas, Calif.). *p<0.05 vs. vehicle control; ANOVA, Dunnett's test. Glucose lowering as percent lowering compared to vehicle is given (negative value indicates lowering of glucose) at 30 minutes post gavage.

GLP-1 receptor = target: T1, GLP-1 receptor (Rattus norvegicus, UniProt P32301); test: GLP-1 receptor functional assay: cAMP induction (HTRF) in rat thyroid carcinoma 6-23 (clone 6) cells; type: cell-based
T1 construct: functional activity was determined using cells that endogenously express GLP-1R; endogenous in cells; host or cells: rat thyroid carcinoma 6-23 (clone 6) cells
T1 sequence (P32301 22-463): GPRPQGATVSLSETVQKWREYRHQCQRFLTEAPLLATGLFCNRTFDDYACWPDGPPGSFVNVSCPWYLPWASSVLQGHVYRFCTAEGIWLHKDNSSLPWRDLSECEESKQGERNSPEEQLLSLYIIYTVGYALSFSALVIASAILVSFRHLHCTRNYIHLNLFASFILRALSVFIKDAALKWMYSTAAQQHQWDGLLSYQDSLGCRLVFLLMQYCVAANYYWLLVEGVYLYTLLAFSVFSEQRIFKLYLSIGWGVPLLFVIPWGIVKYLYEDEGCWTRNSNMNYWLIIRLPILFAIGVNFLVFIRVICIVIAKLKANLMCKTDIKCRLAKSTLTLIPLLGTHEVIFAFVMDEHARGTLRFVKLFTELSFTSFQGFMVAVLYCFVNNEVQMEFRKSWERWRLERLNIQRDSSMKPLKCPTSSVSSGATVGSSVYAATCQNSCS

Molecule: CC[C@H](C)[C@H](NC(=O)[C@H](C)NC(=O)[C@H](CC(=O)O)NC(=O)[C@H](CCCCN)NC(=O)[C@H](CC(C)C)NC(=O)[C@H](C)NC(=O)[C@H](CCC(=O)O)NC(=O)[C@@H](NC(=O)CNC(=O)[C@H](CCC(=O)O)NC(=O)[C@@H](NC(=O)[C@@H](NC(=O)[C@H](CCCCN)NC(=O)[C@H](C)NC(=O)[C@H](CCCCN)NC(=O)[C@H](CC(=O)O)NC(=O)[C@@H](NC(=O)[C@H](CC(C)C)NC(=O)[C@H](CCCNC(=N)N)NC(=O)[C@H](CCCCN)NC(=O)[C@H](Cc1ccc(O)cc1)NC(=O)[C@H](Cc1ccccc1)NC(=O)[C@H](CC(=O)O)NC(=O)[C@H](CO)NC(=O)[C@@H](NC(=O)CNC(=O)[C@H](Cc1ccc(O)cc1)NC(=O)[C@H](CSC1CC(=O)N(CCNC(=O)CN2CCN(CC(=O)O)CCN(CC(=O)O)CCN(CC(=O)O)CC2)C1=O)NC(=O)[C@H](CC(=O)O)NC(=O)[C@H](CC(C)C)NC(=O)[C@H](CCC(=O)O)NC(=O)[C@H](C)NC(=O)[C@H](CC(N)=O)NC(=O)[C@H](C)NC(=O)[C@H](C)NC(=O)[C@H](CCC(=O)O)NC(=O)[C@H](CCCCN)NC(=O)[C@H](C)NC(=O)[C@H](CO)NC(=O)[C@H](C)NC(=O)[C@H](CC(C)C)NC(=O)CN)C(C)C)[C@@H](C)CC)[C@@H](C)O)C(C)C)C(C)C)C(=O)N[C@@H](CC(C)C)C(=O)N[C@@H](C)C(=O)N[C@@H](C)C(=O)N[C@@H](CC(C)C)C(=O)N1CCC[C@H]1C(=O)O (stereo partly shown) [PEP07968]
- immunogenicity definition (CD3+ CD4+ T cells): non-immunogenic
- number of responding individuals (CD3+ CD4+ T cells): 1
- reactivity with serum IgG (average OD-value and percentage of serum with IgG binding) [1]: least reactivity

Molecule: Keyhole Limpet Hemocyanin [KLH, reference compound]
- number of responding individuals (CD3+ CD4+ T cells): 51

Molecule: CC[C@H](C)[C@H](NC(=O)[C@H](C)NC(=O)[C@H](CC(=O)O)NC(=O)[C@H](CCCCN)NC(=O)[C@H](CC(C)C)NC(=O)[C@H](C)NC(=O)[C@H](CCC(=O)O)NC(=O)[C@@H](NC(=O)CNC(=O)[C@H](CCC(=O)O)NC(=O)[C@@H](NC(=O)[C@@H](NC(=O)[C@H](CCCCN)NC(=O)[C@H](C)NC(=O)[C@H](CCCCN)NC(=O)[C@H](CC(=O)O)NC(=O)[C@@H](NC(=O)[C@H](CC(C)C)NC(=O)[C@H](CCCNC(=N)N)NC(=O)[C@H](CCCCN)NC(=O)[C@H](Cc1ccc(O)cc1)NC(=O)[C@H](Cc1ccccc1)NC(=O)[C@H](CC(=O)O)NC(=O)[C@H](CO)NC(=O)[C@@H](NC(=O)CNC(=O)[C@H](Cc1ccc(O)cc1)NC(=O)[C@H](CO)NC(=O)[C@H](CC(=O)O)NC(=O)[C@H](CC(C)C)NC(=O)[C@H](CCC(=O)O)NC(=O)[C@H](C)NC(=O)[C@H](CC(N)=O)NC(=O)[C@H](C)NC(=O)[C@H](C)NC(=O)[C@H](CCC(=O)O)NC(=O)[C@H](CCCCN)NC(=O)[C@H](C)NC(=O)[C@H](CCC(=O)O)NC(=O)[C@H](C)NC(=O)[C@H](CC(C)C)NC(=O)[C@H](CO)NC(=O)CN)C(C)C)[C@@H](C)CC)[C@@H](C)O)C(C)C)C(C)C)C(=O)N[C@@H](CC(C)C)C(=O)N[C@@H](C)C(=O)N[C@@H](C)C(=O)N[C@@H](CC(C)C)C(=O)N1CCC[C@H]1C(=O)O [PEP07986]
- severity score for cytoplasmic vacuolation of renal cortical tubular epithelial cells ([2]; mouse, in vivo, sc): 0

Molecule: CC[C@H](C)[C@H](NC(=O)[C@H](C)NC(=O)[C@H](CC(=O)O)NC(=O)[C@H](CCCCN)NC(=O)[C@H](CC(C)C)NC(=O)[C@H](C)NC(=O)[C@H](CCC(=O)O)NC(=O)[C@@H](NC(=O)CNC(=O)[C@H](CCC(=O)O)NC(=O)[C@@H](NC(=O)[C@@H](NC(=O)[C@H](CCCCN)NC(=O)[C@H](C)NC(=O)[C@H](CCCCN)NC(=O)[C@H](CC(=O)O)NC(=O)[C@@H](NC(=O)[C@H](CC(C)C)NC(=O)[C@H](CCCNC(=N)N)NC(=O)[C@H](CCCCN)NC(=O)[C@H](Cc1ccc(O)cc1)NC(=O)[C@H](Cc1ccccc1)NC(=O)[C@H](CC(=O)O)NC(=O)[C@H](CO)NC(=O)[C@@H](NC(=O)CNC(=O)[C@H](Cc1ccc(O)cc1)NC(=O)[C@H](CO)NC(=O)[C@H](CC(=O)O)NC(=O)[C@H](CC(C)C)NC(=O)[C@H](CCC(=O)O)NC(=O)[C@H](C)NC(=O)[C@H](CC(N)=O)NC(=O)[C@H](C)NC(=O)[C@H](C)NC(=O)[C@H](CCC(=O)O)NC(=O)[C@H](CCCCN)NC(=O)[C@H](C)NC(=O)[C@H](CCC(=O)O)NC(=O)[C@H](C)NC(=O)[C@H](CC(C)C)NC(=O)CN)C(C)C)[C@@H](C)CC)[C@@H](C)O)C(C)C)C(C)C)C(=O)N[C@@H](CC(C)C)C(=O)N[C@@H](C)C(=O)N[C@@H](C)C(=O)N[C@@H](CC(C)C)C(=O)N1CCC[C@H]1C(=O)O [PEP07914]
- immunogenicity definition (CD3+ CD4+ T cells): non-immunogenic
- number of responding individuals (CD3+ CD4+ T cells): 2
- reactivity with serum IgG (average OD-value and percentage of serum with IgG binding) [1]: least reactivity

Molecule: HGEGTFTSDLSKQLEEEAVRLFIEWLKNGGPSSGAPPKSTGGGGSASGSLAEAKEAANAELDSYGVSDFYKRLIDKAKTVEGVEALKDAILAALP [Cmpd 6]
- Percent glucose lowering compared to vehicle (NIH/Swiss mice; 25 nmol/Kg, OGTT at 24 hours post drug administration, 30 minutes post gavage, 4-hr fasted NIH/Swiss mice): −22%

Molecule: CC[C@H](C)[C@H](NC(=O)[C@H](Cc1c[nH]cn1)NC(=O)[C@H](CC(C)C)NC(=O)[C@H](CCCCN)NC(=O)[C@H](CC(C)C)NC(=O)[C@H](C)NC(=O)[C@H](CCC(=O)O)NC(=O)[C@@H](NC(=O)CNC(=O)[C@H](CCC(=O)O)NC(=O)[C@@H](NC(=O)[C@@H](NC(=O)[C@H](CCCCN)NC(=O)[C@H](C)NC(=O)[C@H](CCCCN)NC(=O)[C@H](CC(N)=O)NC(=O)[C@@H](NC(=O)[C@H](CC(C)C)NC(=O)[C@H](CCCNC(=N)N)NC(=O)[C@H](CCCCN)NC(=O)[C@H](Cc1ccc(O)cc1)NC(=O)[C@H](Cc1ccccc1)NC(=O)[C@H](CC(=O)O)NC(=O)[C@H](CO)NC(=O)[C@@H](NC(=O)CNC(=O)[C@H](Cc1ccc(O)cc1)NC(=O)[C@H](CCCCN)NC(=O)[C@H](CC(=O)O)NC(=O)[C@H](CC(C)C)NC(=O)[C@H](CCC(=O)O)NC(=O)[C@H](CCCNC(=N)N)NC(=O)[C@H](CC(N)=O)NC(=O)[C@H](C)NC(=O)[C@H](CC(C)C)NC(=O)[C@@H](NC(=O)[C@H](CCCCN)NC(=O)[C@H](C)NC(=O)[C@H](CCC(=O)O)NC(=O)[C@H](C)NC(=O)[C@H](CC(C)C)NC(=O)[C@H](CO)NC(=O)[C@H](CO)NC(=O)CN)C(C)C)C(C)C)[C@@H](C)CC)[C@@H](C)O)C(C)C)C(C)C)C(=O)N[C@@H](CC(C)C)C(=O)N[C@@H](C)C(=O)N[C@@H](C)C(=O)N[C@@H](CC(C)C)C(=O)N1CCC[C@H]1C(=O)O [PEP06923, reference compound]
- reactivity with serum IgG (average OD-value and percentage of serum with IgG binding) ([1]; 126 positive human sera, diluted 50 times): highest

Molecule: HGEGTFTSDLSKQLEEEAVRLFIEWLKQGGPSKEIISTGGGGSASGSLAEAKEAANAELDSYGVSDFYKRLIDKAKTVEGVEALKDAILAALP [Cmpd 5]
- severity score for cytoplasmic vacuolation of renal cortical tubular epithelial cells ([2]; subcutaneous on days 0-6, sacrificed on day 7, C57BL6 female mice): 0

B1: HGEGTFTSDLSKQLEEEAVRLFIEWLKNTGGGGSASGSLAEAKEAANAELDSYGVS DFYKRLIDKAKTVEGVEALKDAILAALP (protein)
chain: HGEGTFTSDLSKQLEEEAVRLFIEWLKNTGGGGSASGSLAEAKEAANAELDSYGVSDFYKRLIDKAKTVEGVEALKDAILAALP
- activity in OGTT DOA when dosed at t-24 hours (NIH/Swiss mice; NIH/Swiss mice, drug given 24 hours before OGTT): did not display 24 duration
- in vitro activity against the GLP-1 receptor (GLP-1 receptor): active in vitro against the GLP-1 receptor
